Here are results for six molecules from article doi:10.1101/2025.02.07.637115 (bioRxiv, 2025).

One may read the Kd as the equilibrium constant for the complex coming apart.

B1: ALK3 extracellular domain (ALK3 arm of ALK3-ActRIIB in the cryoEM structure) (domain or fragment)
chain: QNLDSMLHGTGMKSDSDQKKSENGVTLAPEDTLPFLKCYCSGHCPDDAINNTCITNGHCFAIIEEDDQGETTLASGCMKYEGSDFQCKDSPKAQLRRTIECCRTNLCNQYLQPTLPPVVIGPFFDGSIR
B2: ALK3-Fc (homodimeric Fc-fusion of ALK3-ECD) (Fc fusion)
chain: B1 chain
B3: BMP6, mammalian expressed (glycosylated), recombinant human (ligand)
chain: SASSRRRQQSRNRSTQSQDVARVSSASDYNSSELKTACRKHELYVSFQDLGWQDWIIAPKGYAANYCDGECSFPLNAHMNATNHAIVQTLVHLMNPEYVPKPCCAPTKLNAISVLYFDDNSNVILKKYRNMVVRACGCH
modifications: N-linked glycosylation at Asn454 (prehelix loop)
B4: deglycosylated BMP6 (ligand)
chain: B3 chain
modifications: deglycosylated with PNGase F
B5: ActRIIB2-Fc (trap containing two ActRIIB ECDs) (Fc fusion)
chain: SGRGEAETRECIYYNANWELERTNQSGLERCEGEQDKRLHCYASWRNSSGTIELVKKGCWLDDFNCYDRQECVATEENPQVYFCCCEGNFCNERFTHLPEAGGPEVTYEPPPTAP

The target in data set [1] is ActRIIB1-Fc (trap with a single ActRIIB ECD) (human). Kind of data set: SPR. For orientation: SPR reads the build-up and loss of mass on a sensor chip optically.
Data set [2] concerns the target B3. Kind of data set: cryo-EM structure.
Data set [3] deals with B3. The data set is described as follows: SPR.
The data set “cryo-EM structure” deals with the molecule itself. The data set is described as follows: cryo-EM structure.
Data set [4] has as its target ALK3-ActRIIB-Fc heterodimeric trap (human, UniProt P36894;Q13705). The data set is described as follows: SPR.
Data set [5] has as its target ALK2-ActRIIB-Fc heterodimeric trap (human, UniProt Q04771;Q13705). Kind of data set: SPR.

ALK2-ActRIIB-Fc heterodimeric trap, sequence (Q04771 21-123, one chain of several): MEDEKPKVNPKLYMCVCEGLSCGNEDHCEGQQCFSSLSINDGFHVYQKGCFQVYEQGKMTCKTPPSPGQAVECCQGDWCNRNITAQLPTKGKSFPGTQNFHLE

Take “BMP6, mammalian expressed (glycosylated), recombinant human (from UniProt P22004 375-513) (ligand)”: the Kd in data set [1] amounted to 282 pM. In the case of B1, the binding result in data set [2] was “binds”. Turning to B2, the binding result in data set [3] was “binds”. For the molecule B3, the binding result in the data set “cryo-EM structure” was “binds”. Moreover, the Kd is 51.7 pM in data set [4] and 36 pM in data set [5]. Consider B4, for which the equilibrium dissociation constant (Kd) in data set [4] was found to be 71.4 pM; in data set [5], 164 pM. As for B5, in data set [3], the Kd is 124 pM.
